The term Km denotes the substrate concentration at which the rate is half of its maximum. Broadly, the Vmax is the rate approached at saturating substrate.

For one substance, Km and Vmax results are on record in PMC10952841, “Biocatalytic synthesis of 2′‐deoxynucleotide 5′‐triphosphates from bacterial genomic DNA: Proof of principle” (Biotechnology and Bioengineering, 2023).

This data set deals with T1, Nc1ncnc2c1ncn2[C@H]1C[C@H](O)[C@@H](COP(=O)(O)O)O1.
T1 construct: C-terminal 6x His tag (pET24a), kept; E. coli BL21(DE3) host; Ni-NTA
The experiment in a line: purified protein. In kind it is biochemical, Escherichia coli. The following applies: 2 mM ATP, 10 mM Mg acetate, 50 mM K acetate, 20 mM Tris-acetate, 37°C, three protein batches (N = 3).

Consider “adenylate kinase (adk) (Escherichia coli K-12)”, for which the Michaelis-Menten constant (Km) was determined as 359 ± 84 µM and the Vmax was 47.9 µmol/min/mg.
